Experimental findings from the supplement of paper PMC10567573 are described below.

B1: FAM189A2 (parent)
chain: PRCDLVDLGEGKICFCCEEFQPAK
B2: CDC25B (parent)
chain: KSPIAPCSLDKRVILIFHCEFSSE
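Note: lentivirally expressed fusions sorted by FACS into six bins by GFP to DsRed ratio, PSI derived from sequencing read proportions per bin multiplied by bin number.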

In one series the parent is B1. Put plainly: protein stability index of a GFP-peptide fusion (GPS, HEK-293T) (PSI 1-6); higher = more stable. The following applies: c terminus: a fixed tail appended.
With HRCDLVDLGEGKICFCCEEFQPAK, the protein stability index is 4.03. For KRCDLVDLGEGKICFCCEEFQPAK, the protein stability index turned out to be 3.14. As for WRCDLVDLGEGKICFCCEEFQPAK, the protein stability index turned out to be 2.43.

Consider NRCDLVDLGEGKICFCCEEFQPAK, for which the protein stability index came to 3.39.

As to LRCDLVDLGEGKICFCCEEFQPAK, the protein stability index is 2.84. Take FRCDLVDLGEGKICFCCEEFQPAK: the protein stability index worked out at 1.85. As for ERCDLVDLGEGKICFCCEEFQPAK, the protein stability index turned out to be 3.16. ARCDLVDLGEGKICFCCEEFQPAK: the protein stability index was 2.24. As to MRCDLVDLGEGKICFCCEEFQPAK, the protein stability index was 1.86. With SRCDLVDLGEGKICFCCEEFQPAK, the protein stability index is 3. Same read-out and setting: next, DRCDLVDLGEGKICFCCEEFQPAK: 2.67; IRCDLVDLGEGKICFCCEEFQPAK: 1.78. For GRCDLVDLGEGKICFCCEEFQPAK, the protein stability index was 3.14.

With CRCDLVDLGEGKICFCCEEFQPAK, the protein stability index stood at 2.83.

Take TRCDLVDLGEGKICFCCEEFQPAK: the protein stability index was found to be 2.63. For the variant RRCDLVDLGEGKICFCCEEFQPAK, the protein stability index stood at 2.43. For the variant YRCDLVDLGEGKICFCCEEFQPAK, the protein stability index amounted to 1.91.

For VRCDLVDLGEGKICFCCEEFQPAK, the protein stability index turned out to be 1.87. Same read-out and setting: next, QRCDLVDLGEGKICFCCEEFQPAK: 2.9. As for PACDLVDLGEGKICFCCEEFQPAK, the protein stability index was found to be 2.83. In the case of PDCDLVDLGEGKICFCCEEFQPAK, the protein stability index was 3.72.

For the variant PCCDLVDLGEGKICFCCEEFQPAK, the protein stability index worked out at 3.55. On the same count and under the same terms, next, PECDLVDLGEGKICFCCEEFQPAK: 3.35.

The variants in the next series derive from B2. Described as above. The following applies: c terminus: a fixed tail appended.
Regarding KSPIAPCSLDKRVILIFCCEFSSE, the protein stability index was 3.24. KSPIAPCSLDKRVILIFYCEFSSE: the protein stability index was found to be 2.5. For the variant KSPIAPCSLDKRVILIFDCEFSSE, the protein stability index was 3.1. With KSPIAPCSLDKRVILIFNCEFSSE, the protein stability index worked out at 2.26. In the case of KSPIAPCSLDKRVILIFFCEFSSE, the protein stability index came out at 3.53. Consider KSPIAPCSLDKRVILIFPCEFSSE, for which the protein stability index was found to be 2.44.

As for KSPIAPCSLDKRVILIFICEFSSE, the protein stability index worked out at 1.86. Same read-out and setting: next, KSPIAPCSLDKRVILIFMCEFSSE: 1.88; KSPIAPCSLDKRVILIFACEFSSE: 3.34. As for KSPIAPCSLDKRVILIFSCEFSSE, the protein stability index was determined as 3.34. On the same count and under the same terms, next, KSPIAPCSLDKRVILIFGCEFSSE: 2.81; KSPIAPCSLDKRVILIFKCEFSSE: 2.45. With KSPIAPCSLDKRVILIFHCGFSSE, the protein stability index worked out at 2.81. For the variant KSPIAPCSLDKRVILIFHCNFSSE, the protein stability index was determined as 3.58. The same measure, in the same setting: next, KSPIAPCSLDKRVILIFHCMFSSE: 2.51; KSPIAPCSLDKRVILIFHCSFSSE: 3.75; KSPIAPCSLDKRVILIFHCKFSSE: 1.64. On to KSPIAPCSLDKRVILIFHCFFSSE, for which the protein stability index was 2.05. KSPIAPCSLDKRVILIFHCIFSSE: the protein stability index turned out to be 2.55.

With KSPIAPCSLDKRVILIFHCHFSSE, the protein stability index amounted to 2.2. With KSPIAPCSLDKRVILIFHCDFSSE, the protein stability index worked out at 2.58. On to KSPIAPCSLDKRVILIFHCPFSSE, for which the protein stability index was 3.36.

Consider KSPIAPCSLDKRVILIFHCVFSSE, for which the protein stability index amounted to 2.73. Still for that read-out and setting: next, KSPIAPCSLDKRVILIFHCCFSSE: 4.34. With KSPIAPCSLDKRVILIFHCAFSSE, the protein stability index came out at 1.82. As to KSPIAPCSLDKRVILIFHCEKSSE, the protein stability index worked out at 1.5.

KSPIAPCSLDKRVILIFHCEHSSE: the protein stability index was 2.91.

Regarding KSPIAPCSLDKRVILIFHCEMSSE, the protein stability index worked out at 3.21. As to KSPIAPCSLDKRVILIFHCEPSSE, the protein stability index came to 2.66. Still for that read-out and setting: next, KSPIAPCSLDKRVILIFHCECSSE: 2.97; KSPIAPCSLDKRVILIFHCEISSE: 2.1.

As for KSPIAPCSLDKRVILIFHCEQSSE, the protein stability index came out at 2.53. For KSPIAPCSLDKRVILIFHCEDSSE, the protein stability index is 1.51.

Take KSPIAPCSLDKRVILIFHCEGSSE: the protein stability index turned out to be 2.94. On the same count and under the same terms, next, KSPIAPCSLDKRVILIFHCETSSE: 3.13; KSPIAPCSLDKRVILIFHCENSSE: 1.88. Regarding KSPIAPCSLDKRVILIFHCESSSE, the protein stability index came to 2.69. For the variant KSPIAPCSLDKRVILIFHCEASSE, the protein stability index stood at 2.32. For the variant KSPIAPCSLDKRVILIFHCERSSE, the protein stability index worked out at 2.15.

With KSPIAPCSLDKRVILIFHTEFSSE, the protein stability index was 3.92. For the variant KSPIAPCSLDKRVILIFHPEFSSE, the protein stability index is 2.75.

For KSPIAPCSLDKRVILIFHQEFSSE, the protein stability index came to 4.16. Same read-out and setting: next, KSPIAPCSLDKRVILIFHNEFSSE: 1.32. Consider KSPIAPCSLDKRVILIFHKEFSSE, for which the protein stability index amounted to 2.03. As for KSPIAPCSLDKRVILIFHEEFSSE, the protein stability index turned out to be 1.85. As for KSPIAPCSLDKRVILIFHAEFSSE, the protein stability index was 3.06. As for KSPIAPCSLDKRVILIFHYEFSSE, the protein stability index is 2.08. KSPIAPCSLDKRVILIFHDEFSSE: the protein stability index worked out at 2.34.

Consider KSPIAPCSLDKRVILIFHREFSSE, for which the protein stability index amounted to 2.96. For KSPIAPCSLDKRVILIFHWEFSSE, the protein stability index came out at 2.31. As for KSPIAPCSLDKRVILIFHHEFSSE, the protein stability index was determined as 1.89.

In the case of KSPIAPCSLDKRVILIFHSEFSSE, the protein stability index was found to be 4.17. For the variant KSPIAPCSLDKRVILIFHIEFSSE, the protein stability index worked out at 2.77.

On to KSPIAPCSLDKRVMLIFHCEFSSE, for which the protein stability index was 2.35. KSPIAPCSLDKRVHLIFHCEFSSE: the protein stability index came to 3.76. With KSPIAPCSLDKRVFLIFHCEFSSE, the protein stability index was 2.94.

For KSPIAPCSLDKRVQLIFHCEFSSE, the protein stability index stood at 1.1. For the variant KSPIAPCSLDKRVSLIFHCEFSSE, the protein stability index stood at 1.94. Still for that read-out and setting: next, KSPIAPCSLDKRVRLIFHCEFSSE: 1.79; KSPIAPCSLDKRVVLIFHCEFSSE: 2.87.

As for KSPIAPCSLDKRVELIFHCEFSSE, the protein stability index amounted to 2.07. For the variant KSPIAPCSLDKRVALIFHCEFSSE, the protein stability index came out at 2.65.

KSPIAPCSLDKRVGLIFHCEFSSE: the protein stability index was 1.56. On to KSPIAPCSLDKRVCLIFHCEFSSE, for which the protein stability index is 1.54. On to KSPIAPCSLDKRVLLIFHCEFSSE, for which the protein stability index was 1.95. Same read-out and setting: next, KSPIAPCSLDKRVTLIFHCEFSSE: 2.1; KSPIAPCSLDKRVPLIFHCEFSSE: 2.25. As to KSPIAPCSLDKRVDLIFHCEFSSE, the protein stability index stood at 2.54. Turning to KSPIAPCSLDKRVNLIFHCEFSSE, the protein stability index worked out at 1.96. Turning to KSPIAPCSLDKRVIIIFHCEFSSE, the protein stability index stood at 3.49. Same read-out and setting: next, KSPIAPCSLDKRVITIFHCEFSSE: 1.8.
